These results are taken from publication PMC10516637, “FANCD2 and RAD51 recombinase directly inhibit DNA2 nuclease at stalled replication forks and FANCD2 acts as a novel RAD51 mediator in strand exchange to promote genome stability” (Nucleic Acids Research, 2023).

This test concerns the target T1, His-tagged human FANCD2 purified from E. coli (human, UniProt Q9BXW9 1-1451).
T1 construct: human FANCD2; non-ubiquitinylated single band on a gel; also called FANCD2-His; hFANCD2; source: E. coli BL21(DE3) CodonPlus, purified (Ni-NTA, Q Sepharose, Superdex 200)
In words: pull-down; FLAG-DNA2 purified on M2 FLAG beads, incubated with purified FANCD2 (1 ug/ml) at 4 C for 1 h; washed with PBS 5 times; western blot; empty M2 beads as control. The conditions noted are these: both partners purified.

T1 sequence (Q9BXW9 whole entry): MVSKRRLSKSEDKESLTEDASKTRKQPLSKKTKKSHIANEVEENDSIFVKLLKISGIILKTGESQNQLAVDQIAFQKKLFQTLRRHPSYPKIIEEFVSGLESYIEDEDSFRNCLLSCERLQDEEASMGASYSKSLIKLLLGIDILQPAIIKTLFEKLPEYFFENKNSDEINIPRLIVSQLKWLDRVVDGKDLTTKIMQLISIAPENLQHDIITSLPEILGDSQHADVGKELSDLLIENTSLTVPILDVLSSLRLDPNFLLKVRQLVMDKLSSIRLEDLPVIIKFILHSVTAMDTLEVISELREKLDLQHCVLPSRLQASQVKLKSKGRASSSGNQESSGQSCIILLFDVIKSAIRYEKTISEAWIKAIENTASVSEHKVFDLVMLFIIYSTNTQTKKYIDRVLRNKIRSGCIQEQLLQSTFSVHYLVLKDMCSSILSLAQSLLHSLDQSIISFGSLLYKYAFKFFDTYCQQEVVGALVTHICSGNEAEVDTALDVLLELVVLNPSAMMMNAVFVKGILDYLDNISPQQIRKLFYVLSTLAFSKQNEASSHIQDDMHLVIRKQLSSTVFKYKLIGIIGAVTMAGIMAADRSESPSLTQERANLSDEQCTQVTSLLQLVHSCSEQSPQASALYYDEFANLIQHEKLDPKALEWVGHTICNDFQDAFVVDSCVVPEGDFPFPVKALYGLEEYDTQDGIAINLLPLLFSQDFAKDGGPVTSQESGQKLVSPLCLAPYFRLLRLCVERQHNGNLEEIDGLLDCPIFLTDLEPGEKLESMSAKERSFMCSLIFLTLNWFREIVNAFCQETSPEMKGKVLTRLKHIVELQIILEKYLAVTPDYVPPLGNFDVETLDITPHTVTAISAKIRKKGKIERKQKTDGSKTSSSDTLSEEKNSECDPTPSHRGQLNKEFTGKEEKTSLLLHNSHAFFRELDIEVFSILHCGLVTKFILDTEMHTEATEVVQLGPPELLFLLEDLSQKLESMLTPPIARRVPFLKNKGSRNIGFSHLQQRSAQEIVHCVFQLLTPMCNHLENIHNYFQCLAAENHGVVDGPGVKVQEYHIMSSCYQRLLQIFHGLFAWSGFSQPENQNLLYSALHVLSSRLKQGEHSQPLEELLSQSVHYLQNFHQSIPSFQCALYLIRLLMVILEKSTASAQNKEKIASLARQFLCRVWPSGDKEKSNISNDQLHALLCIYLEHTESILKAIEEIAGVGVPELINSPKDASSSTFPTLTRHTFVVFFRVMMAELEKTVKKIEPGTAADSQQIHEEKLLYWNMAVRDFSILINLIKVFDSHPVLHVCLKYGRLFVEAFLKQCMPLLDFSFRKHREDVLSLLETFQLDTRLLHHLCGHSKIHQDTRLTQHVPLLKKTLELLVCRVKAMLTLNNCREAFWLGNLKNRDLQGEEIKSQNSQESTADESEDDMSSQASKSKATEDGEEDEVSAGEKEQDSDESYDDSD

B1: FLAG-tagged human DNA2 from 293T cells (enzyme, UniProt P51530 1-1060, looked up)
chain: MEQLNELELLMEKSFWEEAELPAELFQKKVVASFPRTVLSTGMDNRYLVLAVNTVQNKEGNCEKRLVITASQSLENKELCILRNDWCSVPVEPGDIIHLEGDCTSDTWIIDKDFGYLILYPDMLISGTSIASSIRCMRRAVLSETFRSSDPATRQMLIGTVLHEVFQKAINNSFAPEKLQELAFQTIQEIRHLKEMYRLNLSQDEIKQEVEDYLPSFCKWAGDFMHKNTSTDFPQMQLSLPSDNSKDNSTCNIEVVKPMDIEESIWSPRFGLKGKIDVTVGVKIHRGYKTKYKIMPLELKTGKESNSIEHRSQVVLYTLLSQERRADPEAGLLLYLKTGQMYPVPANHLDKRELLKLRNQMAFSLFHRISKSATRQKTQLASLPQIIEEEKTCKYCSQIGNCALYSRAVEQQMDCSSVPIVMLPKIEEETQHLKQTHLEYFSLWCLMLTLESQSKDNKKNHQNIWLMPASEMEKSGSCIGNLIRMEHVKIVCDGQYLHNFQCKHGAIPVTNLMAGDRVIVSGEERSLFALSRGYVKEINMTTVTCLLDRNLSVLPESTLFRLDQEEKNCDIDTPLGNLSKLMENTFVSKKLRDLIIDFREPQFISYLSSVLPHDAKDTVACILKGLNKPQRQAMKKVLLSKDYTLIVGMPGTGKTTTICTLVRILYACGFSVLLTSYTHSAVDNILLKLAKFKIGFLRLGQIQKVHPAIQQFTEQEICRSKSIKSLALLEELYNSQLIVATTCMGINHPIFSRKIFDFCIVDEASQISQPICLGPLFFSRRFVLVGDHQQLPPLVLNREARALGMSESLFKRLEQNKSAVVQLTVQYRMNSKIMSLSNKLTYEGKLECGSDKVANAVINLRHFKDVKLELEFYADYSDNPWLMGVFEPNNPVCFLNTDKVPAPEQVEKGGVSNVTEAKLIVFLTSIFVKAGCSPSDIGIIAPYRQQLKIINDLLARSIGMVEVNTVDKYQGRDKSIVLVSFVRSNKDGTVGELLKDWRRLNVAITRAKHKLILLGCVPSLNCYPPLEKLLNHLNSEKLIIDLPSREHESLCHILGDFQRE
notes: human DNA2 helicase/nuclease; also called FLAG-DNA2; hDNA2; source: 293T, over-expressed, purified (M2 FLAG beads, 3x FLAG peptide elution); HEK-293T, over-expressed, in lysate
Take B1: the binding result is “binds”.
